# Numbered stars: 1 amine (or outer) side, 2 acyl side, 3 side chain; on linkers, the order of the positions; unused ones are H or OH. Bridge positions count the residues as written; N and C are the ends. Square brackets hold non-standard residues; d marks the D form. Ends that are not written are not given here. X13 = (2S)‑2‑amino‑3‑(1-methylcyclopropyl)propanoic acid, CC1(C[C@H](N[*:1])C(=O)[*:2])CC1; Oic = O=C(O)[C@@H]1C[C@@H]2CCCC[C@@H]2N1; tBuAla = CC(C)(C)C[C@H](N)C(=O)O; Pen = CC(C)(S)[C@H](N)C(=O)O; 3Amb = NCc1cccc(C(=O)O)c1; NMeC = CN[C@@H](CS)C(=O)O; Nva = CCC[C@H](N)C(=O)O; Dap = NC[C@H](N)C(=O)O; Sar = CNCC(=O)O
# T1: Recombinant human MASP1 enzyme (fragment corresponding to amino acids 297-699, C-terminal His Tag) (human, UniProt P48740 297-699)
# T1 sequence: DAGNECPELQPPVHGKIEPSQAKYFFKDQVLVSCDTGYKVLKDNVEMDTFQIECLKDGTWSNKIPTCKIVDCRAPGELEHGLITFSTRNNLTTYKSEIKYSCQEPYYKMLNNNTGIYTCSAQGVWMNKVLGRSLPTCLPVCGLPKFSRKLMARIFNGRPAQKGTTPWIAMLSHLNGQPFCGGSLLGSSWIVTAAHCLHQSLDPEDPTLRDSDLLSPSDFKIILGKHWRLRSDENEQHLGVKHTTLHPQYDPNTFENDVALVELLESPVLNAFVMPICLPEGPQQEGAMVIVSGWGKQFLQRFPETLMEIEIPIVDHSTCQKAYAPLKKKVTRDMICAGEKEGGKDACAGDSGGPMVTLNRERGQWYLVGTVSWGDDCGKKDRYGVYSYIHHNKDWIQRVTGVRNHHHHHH
# B1: ((N-Me)G)-IC+SRSLP-(Oic)-I-(Pen)+IPE-NH2 (peptide)
# peptide: [Sar]ICSRSLP[Oic]I[Pen]IPE-NH2
# modifications: disulfide 3-11; N-terminus assumed
# SMILES: CC[C@H](C)[C@H](NC(=O)CNC)C(=O)N[C@H]1CSSC(C)(C)[C@@H](C(=O)N[C@H](C(=O)N2CCC[C@H]2C(=O)N[C@@H](CCC(=O)O)C(N)=O)[C@@H](C)CC)NC(=O)[C@H]([C@@H](C)CC)NC(=O)[C@@H]2C[C@@H]3CCCC[C@@H]3N2C(=O)[C@@H]2CCCN2C(=O)[C@H](CC(C)C)NC(=O)[C@H](CO)NC(=O)[C@H](CCCNC(=N)N)NC(=O)[C@H](CO)NC1=O
# B2: aIC+SRSLP-(Oic)-I-(Pen)+IPQ-NH2 (peptide)
# peptide: [dA]ICSRSLP[Oic]I[Pen]IPQ-NH2
# modifications: disulfide 3-11; N-terminus assumed
# SMILES: CC[C@H](C)[C@H](NC(=O)[C@@H](C)N)C(=O)N[C@H]1CSSC(C)(C)[C@@H](C(=O)N[C@H](C(=O)N2CCC[C@H]2C(=O)N[C@@H](CCC(N)=O)C(N)=O)[C@@H](C)CC)NC(=O)[C@H]([C@@H](C)CC)NC(=O)[C@@H]2C[C@@H]3CCCC[C@@H]3N2C(=O)[C@@H]2CCCN2C(=O)[C@H](CC(C)C)NC(=O)[C@H](CO)NC(=O)[C@H](CCCNC(=N)N)NC(=O)[C@H](CO)NC1=O
# B3: aIC+SRSLP-(Oic)-I-(Pen)+IP-OH (peptide)
# peptide: [dA]ICSRSLP[Oic]I[Pen]IP-OH
# modifications: disulfide 3-11; N-terminus assumed
# SMILES: CC[C@H](C)[C@H](NC(=O)[C@@H](C)N)C(=O)N[C@H]1CSSC(C)(C)[C@@H](C(=O)N[C@H](C(=O)N2CCC[C@H]2C(=O)O)[C@@H](C)CC)NC(=O)[C@H]([C@@H](C)CC)NC(=O)[C@@H]2C[C@@H]3CCCC[C@@H]3N2C(=O)[C@@H]2CCCN2C(=O)[C@H](CC(C)C)NC(=O)[C@H](CO)NC(=O)[C@H](CCCNC(=N)N)NC(=O)[C@H](CO)NC1=O
# B4: AIC+SRS-((tBu)A)-P-(Oic)-I-((N-Me)C)+I-NH2 (peptide)
# peptide: AICSRS[tBuAla]P[Oic]I[NMeC]I-NH2
# modifications: disulfide 3-11; N-terminus assumed
# SMILES: CC[C@H](C)[C@H](NC(=O)[C@@H]1CSSC[C@H](NC(=O)[C@@H](NC(=O)[C@H](C)N)[C@@H](C)CC)C(=O)N[C@@H](CO)C(=O)N[C@@H](CCCNC(=N)N)C(=O)N[C@@H](CO)C(=O)N[C@@H](CC(C)(C)C)C(=O)N2CCC[C@H]2C(=O)N2[C@@H](C[C@@H]3CCCC[C@@H]32)C(=O)N[C@@H]([C@@H](C)CC)C(=O)N1C)C(N)=O
# B5: aIC+SRSLP-(Oic)-I-(Pen)+IPE-OH (peptide)
# peptide: [dA]ICSRSLP[Oic]I[Pen]IPE-OH
# modifications: disulfide 3-11; N-terminus assumed
# SMILES: CC[C@H](C)[C@H](NC(=O)[C@@H](C)N)C(=O)N[C@H]1CSSC(C)(C)[C@@H](C(=O)N[C@H](C(=O)N2CCC[C@H]2C(=O)N[C@@H](CCC(=O)O)C(=O)O)[C@@H](C)CC)NC(=O)[C@H]([C@@H](C)CC)NC(=O)[C@@H]2C[C@@H]3CCCC[C@@H]3N2C(=O)[C@@H]2CCCN2C(=O)[C@H](CC(C)C)NC(=O)[C@H](CO)NC(=O)[C@H](CCCNC(=N)N)NC(=O)[C@H](CO)NC1=O
# B6: A-(Nva)-C+SRS-((tBu)A)-PPI-(Pen)+IPD-NH2 (peptide)
# peptide: A[Nva]CSRS[tBuAla]PPI[Pen]IPD-NH2
# modifications: disulfide 3-11; N-terminus assumed
# SMILES: CCC[C@H](NC(=O)[C@H](C)N)C(=O)N[C@H]1CSSC(C)(C)[C@@H](C(=O)N[C@H](C(=O)N2CCC[C@H]2C(=O)N[C@@H](CC(=O)O)C(N)=O)[C@@H](C)CC)NC(=O)[C@H]([C@@H](C)CC)NC(=O)[C@@H]2CCCN2C(=O)[C@@H]2CCCN2C(=O)[C@H](CC(C)(C)C)NC(=O)[C@H](CO)NC(=O)[C@H](CCCNC(=N)N)NC(=O)[C@H](CO)NC1=O
# B7: ((N-Me)G)-IC+SRSLP-(Oic)-I-(Pen)+IPQ-NH2 (peptide)
# peptide: [Sar]ICSRSLP[Oic]I[Pen]IPQ-NH2
# modifications: disulfide 3-11; N-terminus assumed
# SMILES: CC[C@H](C)[C@H](NC(=O)CNC)C(=O)N[C@H]1CSSC(C)(C)[C@@H](C(=O)N[C@H](C(=O)N2CCC[C@H]2C(=O)N[C@@H](CCC(N)=O)C(N)=O)[C@@H](C)CC)NC(=O)[C@H]([C@@H](C)CC)NC(=O)[C@@H]2C[C@@H]3CCCC[C@@H]3N2C(=O)[C@@H]2CCCN2C(=O)[C@H](CC(C)C)NC(=O)[C@H](CO)NC(=O)[C@H](CCCNC(=N)N)NC(=O)[C@H](CO)NC1=O
# B8: ((N-Me)G)-IC+SRSLP-(Oic)-I-(Pen)+IPE-OH (peptide)
# peptide: [Sar]ICSRSLP[Oic]I[Pen]IPE-OH
# modifications: disulfide 3-11; N-terminus assumed
# SMILES: CC[C@H](C)[C@H](NC(=O)CNC)C(=O)N[C@H]1CSSC(C)(C)[C@@H](C(=O)N[C@H](C(=O)N2CCC[C@H]2C(=O)N[C@@H](CCC(=O)O)C(=O)O)[C@@H](C)CC)NC(=O)[C@H]([C@@H](C)CC)NC(=O)[C@@H]2C[C@@H]3CCCC[C@@H]3N2C(=O)[C@@H]2CCCN2C(=O)[C@H](CC(C)C)NC(=O)[C@H](CO)NC(=O)[C@H](CCCNC(=N)N)NC(=O)[C@H](CO)NC1=O
# B9: ((N-Me)G)-IC+SRSLP-(Oic)-I-(Pen)+IPQ-OH (peptide)
# peptide: [Sar]ICSRSLP[Oic]I[Pen]IPQ-OH
# modifications: disulfide 3-11; N-terminus assumed
# SMILES: CC[C@H](C)[C@H](NC(=O)CNC)C(=O)N[C@H]1CSSC(C)(C)[C@@H](C(=O)N[C@H](C(=O)N2CCC[C@H]2C(=O)N[C@@H](CCC(N)=O)C(=O)O)[C@@H](C)CC)NC(=O)[C@H]([C@@H](C)CC)NC(=O)[C@@H]2C[C@@H]3CCCC[C@@H]3N2C(=O)[C@@H]2CCCN2C(=O)[C@H](CC(C)C)NC(=O)[C@H](CO)NC(=O)[C@H](CCCNC(=N)N)NC(=O)[C@H](CO)NC1=O
# B10: (3-(Aminomethyl)benzoic acid)-IC+SRS-((tBu)A)-PPI-(Pen)+IP-NH2 (peptide)
# peptide: [3Amb]ICSRS[tBuAla]PPI[Pen]IP-NH2
# modifications: disulfide 3-11; N-terminus assumed
# SMILES: CC[C@H](C)[C@H](NC(=O)c1cccc(CN)c1)C(=O)N[C@H]1CSSC(C)(C)[C@@H](C(=O)N[C@H](C(=O)N2CCC[C@H]2C(N)=O)[C@@H](C)CC)NC(=O)[C@H]([C@@H](C)CC)NC(=O)[C@@H]2CCCN2C(=O)[C@@H]2CCCN2C(=O)[C@H](CC(C)(C)C)NC(=O)[C@H](CO)NC(=O)[C@H](CCCNC(=N)N)NC(=O)[C@H](CO)NC1=O
# B11: (Dap)-IC+SRS-((tBu)A)-PPI-(Pen)+I-NH2 (peptide)
# peptide: [Dap]ICSRS[tBuAla]PPI[Pen]I-NH2
# modifications: disulfide 3-11; N-terminus assumed
# SMILES: CC[C@H](C)[C@H](NC(=O)[C@H]1NC(=O)[C@H]([C@@H](C)CC)NC(=O)[C@@H]2CCCN2C(=O)[C@@H]2CCCN2C(=O)[C@H](CC(C)(C)C)NC(=O)[C@H](CO)NC(=O)[C@H](CCCNC(=N)N)NC(=O)[C@H](CO)NC(=O)[C@@H](NC(=O)[C@@H](NC(=O)[C@@H](N)CN)[C@@H](C)CC)CSSC1(C)C)C(N)=O
# B12: aIC+SRSLP-(Oic)-I-(Pen)+IPE-NH2 (peptide)
# peptide: [dA]ICSRSLP[Oic]I[Pen]IPE-NH2
# modifications: disulfide 3-11; N-terminus assumed
# SMILES: CC[C@H](C)[C@H](NC(=O)[C@@H](C)N)C(=O)N[C@H]1CSSC(C)(C)[C@@H](C(=O)N[C@H](C(=O)N2CCC[C@H]2C(=O)N[C@@H](CCC(=O)O)C(N)=O)[C@@H](C)CC)NC(=O)[C@H]([C@@H](C)CC)NC(=O)[C@@H]2C[C@@H]3CCCC[C@@H]3N2C(=O)[C@@H]2CCCN2C(=O)[C@H](CC(C)C)NC(=O)[C@H](CO)NC(=O)[C@H](CCCNC(=N)N)NC(=O)[C@H](CO)NC1=O
# B13: aIC+SRSLP-(Oic)-I-(Pen)+IPQ-OH (peptide)
# peptide: [dA]ICSRSLP[Oic]I[Pen]IPQ-OH
# modifications: disulfide 3-11; N-terminus assumed
# SMILES: CC[C@H](C)[C@H](NC(=O)[C@@H](C)N)C(=O)N[C@H]1CSSC(C)(C)[C@@H](C(=O)N[C@H](C(=O)N2CCC[C@H]2C(=O)N[C@@H](CCC(N)=O)C(=O)O)[C@@H](C)CC)NC(=O)[C@H]([C@@H](C)CC)NC(=O)[C@@H]2C[C@@H]3CCCC[C@@H]3N2C(=O)[C@@H]2CCCN2C(=O)[C@H](CC(C)C)NC(=O)[C@H](CO)NC(=O)[C@H](CCCNC(=N)N)NC(=O)[C@H](CO)NC1=O
# B14: ((N-Me)G)-IC+SRS-((2S)-2-amino-3-(1-methylcyclopropyl)propanoic acid)-PPI-(Pen)+IP-NH2 (peptide)
# peptide: [Sar]ICSRS[X13]PPI[Pen]IP-NH2
# modifications: disulfide 3-11; N-terminus assumed
# SMILES: CC[C@H](C)[C@H](NC(=O)CNC)C(=O)N[C@H]1CSSC(C)(C)[C@@H](C(=O)N[C@H](C(=O)N2CCC[C@H]2C(N)=O)[C@@H](C)CC)NC(=O)[C@H]([C@@H](C)CC)NC(=O)[C@@H]2CCCN2C(=O)[C@@H]2CCCN2C(=O)[C@H](CC2(C)CC2)NC(=O)[C@H](CO)NC(=O)[C@H](CCCNC(=N)N)NC(=O)[C@H](CO)NC1=O
# Target: Recombinant human MASP2 enzyme (fragment corresponding to amino acids 297-686, C-terminal His Tag) (human, UniProt O00187 297-686)
# Assay: cell-based or functional assay
# Sequence of Recombinant human MASP2 enzyme (fragment corresponding to amino acids 297-686, C-terminal His Tag) (O00187 other isoform, or with tags, fused parts or gaps limits assumed): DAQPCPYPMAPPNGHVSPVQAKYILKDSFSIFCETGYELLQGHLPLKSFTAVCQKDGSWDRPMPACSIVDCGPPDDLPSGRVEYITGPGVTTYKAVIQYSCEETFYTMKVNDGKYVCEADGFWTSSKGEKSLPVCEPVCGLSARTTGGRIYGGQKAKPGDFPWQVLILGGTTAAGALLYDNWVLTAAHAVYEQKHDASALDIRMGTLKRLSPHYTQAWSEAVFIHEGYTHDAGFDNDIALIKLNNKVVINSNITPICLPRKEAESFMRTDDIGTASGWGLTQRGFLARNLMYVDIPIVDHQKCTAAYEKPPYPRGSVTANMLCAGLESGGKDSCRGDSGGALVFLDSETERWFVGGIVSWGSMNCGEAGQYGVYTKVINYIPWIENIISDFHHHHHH
row,human MASP2 IC50 [nM],Binder
1,200,B1
2,130,B2
3,200,B3
4,250,B4
5,100,[Sar]ICSRSLP[Oic]I[Pen]I[5‑Azaspiro(2.4)heptane‑1‑carboxylic acid]-OH (disulfide 3-11) [((N-Me)G)-IC+SRSLP-(Oic)-I-(Pen)+I-((5-Azaspiro[2.4]heptane-1-carboxylic acid)-OH]
6,100,B5
7,19,B6
8,190,B7
9,180,B8
10,170,B9
11,16,B10
12,81,B11
13,150,B12
14,140,B13
15,17,B14

# Target: T1, Recombinant human MASP1 enzyme …
# Assay: cell-based or functional assay
row,human MASP1 IC50 [nM],Binder
1,5,B1
2,5.3,B2
3,4.9,B3
4,5.2,B4
5,5.1,[Sar]ICSRSLP[Oic]I[Pen]I[5‑Azaspiro(2.4)heptane‑1‑carboxylic acid]-OH (disulfide 3-11) [((N-Me)G)-IC+SRSLP-(Oic)-I-(Pen)+I-((5-Azaspiro[2.4]heptane-1-carboxylic acid)-OH]
6,5.3,B5
7,5.2,B6
8,5.2,B7
9,5.1,B8
10,5.4,B9
11,5.4,B10
12,5.1,B11
13,5,B12
14,4.9,B13
15,5.1,B14
